One molecule from patent US20210371520A1 (AGILENT TECHNOLOGIES, published 2021) can be followed below.

For this assay, the target named is T1, human LAG-3 (Lymphocyte-Activation Gene 3) protein (human, UniProt P18627 23-525).
T1 construct: whole, on cells; Endogenous LAG-3 in normal and tumour tissue sections (IHC), not a recombinant protein; also called CD223
T1 sequence (looked up): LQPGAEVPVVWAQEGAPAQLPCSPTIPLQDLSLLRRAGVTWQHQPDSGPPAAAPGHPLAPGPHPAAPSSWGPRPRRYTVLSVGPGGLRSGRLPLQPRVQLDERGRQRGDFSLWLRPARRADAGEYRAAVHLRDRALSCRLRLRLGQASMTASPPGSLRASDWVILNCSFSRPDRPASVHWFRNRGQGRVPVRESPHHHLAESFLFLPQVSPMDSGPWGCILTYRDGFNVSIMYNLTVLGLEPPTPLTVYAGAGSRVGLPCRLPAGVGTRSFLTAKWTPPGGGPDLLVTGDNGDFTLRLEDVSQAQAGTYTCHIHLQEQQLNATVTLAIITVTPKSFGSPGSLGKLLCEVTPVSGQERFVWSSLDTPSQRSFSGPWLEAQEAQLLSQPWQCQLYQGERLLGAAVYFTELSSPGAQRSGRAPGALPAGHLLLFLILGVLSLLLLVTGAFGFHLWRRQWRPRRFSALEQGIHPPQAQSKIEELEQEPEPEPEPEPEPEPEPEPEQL
Kind of assay: double IHC staining on normal tonsil. The text has this: FIG. 9 illustrates tumor tissue samples of Lung Squamous cell Carcinoma (SQC) (FIG. 10) and kidney renal cell carcinoma (RCC) (FIG. 11); the double IHC staining method follows the protocol of Petersen, et al. 2018 [18] using the EnVision FLEX+™ system in a sequential manner, where the exemplary LAG-3 antibody, clone 12H8 (HRP DAB chromagen) constitutes the first layer followed by a sulfuric acid block step and adding an extra EnVision FLEX+™ staining layer on top with PD1 antibody, clone NAT105 (magenta chromogen)); and FIG. 9 illustrates that LAG-3 is co-localized with the PD1 T cell marker in a subpopulation of activated T cells in the germinal center of the tonsil. Other cells belonging to the activated T cell population is only stained by PD1. The B lymphocytes in the germinal center are negative for both the LAG-3 and the PD1 antibody, illustrating the specificity of both these antibodies: (Red arrow: strongly LAG-3 positive, DAB overshadows magenta PD1. Green arrow: weakly pos LAG-3 with both DAB membrane and DAB golgi and PD1 magenta stain visible). PD1 positive, LAG-3 negative T cells: (orange arrow).

B1: rabbit anti-human LAG-3 antibody, clone 12H8 (antibody, V domains shown)
VH: QSVKESEGGLFKPTDTLTLTCTVSGIDLSSGILVWVRQAPGSGLEWIGGIDANGRAYYASWAKSRSTITRNTNENTVTLKMTSLTAADTATYFCAGGAWNIWGPGTLVTVSS
VL: AQVLTQTPSPVSAAVGGTVTIKCQSSQSVYDSNTLAWFQQKPGQPPKLLMYSASTLAFGVPSRFSGSGSGTQFTLTISDLECADAATYYCLGSYDCSSVDCTAFGGGTEVVVK
notes: also called LAG-3 clone 12H8; exemplary LAG-3 antibody
Regarding B1, the binding result is “binds”.
